Biological target: the molecule itself
Assay: crystal structure; in meso crystals of the Bpe-S8 complex; 26% PEG 550MME, 0.1 M sodium citrate, pH 5.0; 2.8 A

B1: Fluoride channel from B. pertussis (Fluc homolog Bpe) (natural protein)
chain: MLTYAPLNFIAIGIGATLGAWLRWVLGLRLNGAGWPWGTLTANLVGGYLIGVMVALIASHPEWPAWIRLAAVTGFLGGLTTFSTFSAETVDMLERGVYATAAAYAGASLAGSLAMTGLGLATVRLLLR
notes: Fluc family fluoride ion channel homolog Bpe from B. pertussis; homodimer of two antiparallel subunits (subunits A and B in PDB 6BQO); pET21c with Bpe gene, C-terminal hexahistidine tag; Construct as in Stockbridge et al., 2013; also called Fluc channel; Fluc homologue "Bpe"; source: E. coli, purified (as described in Stockbridge et al., 2013); reconstituted into liposomes for …
stoichiometry N: 2

From article PMC5884710, “Cork-in-Bottle Occlusion of Fluoride Ion Channels by Crystallization Chaperones” (Structure(London, England:1993), 2018)
